Experimental data as given in publication PMC3897377, “Utilizing Nanobody Technology to Target Non-Immunodominant Domains of VAR2CSA” (PLoS ONE, 2014).

B1: Nb09 (VHH)
VHH: QVQLQESGGGLVQAGGSLRLSCAASGRTFSNYGMGWFRQTPEKERDLLAAVTWSGGRTYYADSVKGRFTISRDNAKNTVYLQMNSLKPEDTAVYYCAAGELFYSDYGPEGEWDYWGQGTQVTVSS
notes: from an alpaca immunized with full-length VAR2CSA; pHEN6c vector; also called Nanobody 09; VHH; source: E. coli WK6, periplasmic extract, purified (HisTrap); not shown: His6, C-terminal, kept
B2: Nb04 (VHH)
VHH: QVQLQESGGGLAQPGGSLRLSCTASGRIYRMAWFRQAPGKERELVASITHIGATNYADSVKGRFTISRDNFKNTMYLQMNDLKPEDTAVYYCNAASSWGKGTQVTVSS
notes: from an alpaca immunized with full-length VAR2CSA; pHEN6c vector; also called Nanobody 04; VHH; source: E. coli WK6, periplasmic extract, purified (HisTrap); not shown: His6, C-terminal, kept

Columns and labels:
[1] = molecular target: T1, DBL1-ID2a of VAR2CSA of the heterologous 3D7 parasite line (Plasmodium falciparum 3D7, UniProt Q8I639, strain); assay: ELISA; recombinant VAR2CSA protein or domain (50 nM in PBS) coated on MaxiSorp plates overnight at 4°C; Nb 50 nM in 1% skim milk in PBS, 90 min RT; detected with rabbit anti-camel and HRP anti-rabbit, OD 490 nm after 20 min; conditions: both partners purified
T1 construct: VAR2CSA, P. falciparum strain 3D7; also called 3D7 DBL1-ID2a; source: baculovirus expression system

[2] = molecular target: T2, ID1–ID2a of VAR2CSA of the heterologous 3D7 parasite line (Plasmodium falciparum 3D7, UniProt Q8I639, strain); assay: as above; conditions: both partners purified
T2 construct: VAR2CSA, P. falciparum strain 3D7; also called 3D7 ID1–ID2a; source: baculovirus expression system

[3] = molecular target: T3, VAR2CSA DBL6 domain, baculovirus-produced (Plasmodium falciparum FCR3, UniProt Q6UDW7, strain); assay: as above; conditions: both partners purified
T3 construct: DBL6 domain; also called DBL6ε; source: baculovirus expression system, as described in [11], [20]

[4] = molecular target: T4, VAR2CSA DBL3 domain, baculovirus-produced (Plasmodium falciparum FCR3 (implied), UniProt Q6UDW7, strain); assay: as above; conditions: both partners purified
T4 construct: DBL3 domain; also called DBL3X; source: baculovirus expression system, as described in [11], [20]

[5] = molecular target: T5, ID1–ID2a minimal CSA-binding region of VAR2CSA, produced in Schneider 2 (S2) cells (Plasmodium falciparum FCR3, UniProt Q6UDW7, strain); assay: as above; conditions: both partners purified
T5 construct: ID1–ID2a region; also called ID1–ID2a (S2); source: Schneider 2 (S2) cells

[6] = molecular target: T6, ID1–ID2a minimal CSA-binding region of VAR2CSA, produced in E. coli (Plasmodium falciparum FCR3, UniProt Q6UDW7, strain); assay: as above; conditions: both partners purified
T6 construct: ID1–ID2a region; also called ID1–ID2a (coli); source: E. coli

[7] = molecular target: T7, DBL1-ID2a protein of VAR2CSA (containing minimal CSA-binding region), baculovirus-produced (Plasmodium falciparum FCR3 (assumed for …, UniProt Q6UDW7, strain)); assay: far-Western, overlay or dot blot; Western blot: recombinant VAR2CSA domain (0,4 µg/lane) run NON-REDUCED on SDS gel, blotted to nitrocellulose, probed with 50 nM Nb in TBST; rabbit anti-camel and HRP anti-rabbit; conditions: both partners purified
T7 construct: DBL1-ID2a; source: baculovirus-produced

[8] = molecular target: T8, ID1–ID2a minimal CSA-binding region of VAR2CSA, baculovirus-produced (Plasmodium falciparum FCR3, UniProt Q6UDW7, strain); assay: ELISA; recombinant VAR2CSA protein or domain (50 nM in PBS) coated on MaxiSorp plates overnight at 4°C; Nb 50 nM in 1% skim milk in PBS, 90 min RT; detected with rabbit anti-camel and HRP anti-rabbit, OD 490 nm after 20 min; conditions: both partners purified
T8 construct: VAR2CSA, P. falciparum FCR3; ID1–ID2a region encompassing DBL2X with the flanking parts ID1 and ID2; also called ID1–ID2a (BV); source: baculovirus expression system, as described in [11], [20]

[9] = molecular target: T9, full-length VAR2CSA (FV2) recombinant protein, FCR3 (Plasmodium falciparum FCR3, UniProt Q6UDW7, strain); assay: as above; conditions: both partners purified
T9 construct: VAR2CSA (PfEMP1 family), Plasmodium falciparum strain FCR3, full-length recombinant protein; also called FV2-FCR3; source: recombinant, purified, expressed as described in [33]

[10] = molecular target: T10, native VAR2CSA on the surface of NF54 infected erythrocytes (Plasmodium falciparum NF54 (VAR2CSA …, UniProt Q8I639, strain)); assay: flow cytometry on cells; late stage VAR2CSA-expressing IE (FCR3, 7201, NF54) incubated with Nb (0,1 mg/ml), 30 min at 4°C; detected with mouse anti-penta-His and FITC anti-mouse; specific recognition defined by an MFI ratio >1.2; conditions: one partner purified
T10 construct: VAR2CSA of the P. falciparum parasite line NF54, native protein on infected erythrocytes; also called VAR2CSA-expressing IE (NF54); source: endogenous, on P. falciparum NF54-infected erythrocytes

[11] = molecular target: T3, VAR2CSA DBL6 domain, …; assay: ELISA; recombinant VAR2CSA protein or domain (50 nM in PBS) coated on MaxiSorp plates overnight at 4°C; Nb 50 nM in 1% skim milk in PBS, 90 min RT; detected with rabbit anti-camel and HRP anti-rabbit, OD 490 nm after 20 min; conditions: both partners purified; remark: listed apart in the source

| Binder | binding result [1] | binding result [2] | binding result [3] | binding result [4] | binding result [5] | binding result [6] | binding result [7] | binding result [8] | binding result [9] | binding result [10] | binding result [11] |
| --- | --- | --- | --- | --- | --- | --- | --- | --- | --- | --- | --- |
| B1 | binds | binds | no binding (tested: 50 nM) | no binding (tested: 50 nM) | binds | binds | binds | binds | binds | binds |  |
| B2 |  |  |  | no binding (tested: 50 nM) |  |  |  |  | binds | binds | binds |
